{"source": "patent US11198871B2", "about": "“Riboswitch-mediated regulatory control of gene expression in thermophilic bacteria” (priority 2019, dated 2021)", "molecules": {"B1": {"name": "Tsac 2588 (nucleic acid, listed as Thermoanaerobacterium saccharolyticum)", "DNA": "ATTGTGTCAGGACAAGTAAATAATAGCTCATATAATTCTGAGAATACGGCTCAGAAGTCTCTACCAGACAACCGTAAATTGTCTGACTATGAGTGAAAGTGTACCTGAGGGTTCCAGCCTTATTGTCCATGTGTAGAAAACAGTAAAGGCGTTCGGACCGAGCGGTACAGGCATTGTATTGCCACACCTGTGGGATAAAAGCCCGGGAGGATAGGTTTCACTCTATGTGTTGGAATCTATCATTCCGGGCTTGTTTATTTTTAAAATTCGTTTTTATTT"}, "B2": {"name": "Tsac 2584 (nucleic acid, listed as Thermoanaerobacterium saccharolyticum)", "DNA": "B1 DNA"}}, "system": "sfGFP", "format": "cell-based, Geobacillus thermoglucosidasius", "conditions": "for fold change (reduction) of maximal normalized fluorescence: 0.25 mM guanosine versus none; for maximal normalized fluorescence: mid-exponential growth, 55° C.", "procedure": "To evaluate the T.s. riboswitches' regulatory activities, a thermophilic fluorescence reporter assay was used that included the use of super-folder green fluorescence protein (sfGFP) which is active in the aerobic thermophile, Geobacillus thermoglucosidasius (G.t.), at a growth temperature of 55° C. Both purine riboswitches from T.s. were inserted downstream of the pRp1S strong promoter respectively in plasmid pG1AK-sf such that the riboswitch controlled the expression of sfGFP once it was introduced into G.t. (see FIG. 2a and Table 1).\nTo trigger the regulatory response from the riboswitches, guanosine was used as the ligand as cells can import the compound and convert it into guanine enzymatically. […] As an additional control, a point mutation was introduced in the Tsac 2584 aptamer domain at position 74 (C74U). Position 74 is responsible for its interaction with guanine.\nIn an embodiment, and as depicted in FIG. 8, the normalized fluorescence of the cell culture is defined as: […]\nTo compare the normalized fluorescence between cultures growing with different ligand concentrations, the normalized fluorescence for each culture was averaged between the mid-log points where the OD was between 0.4 and 0.6.\nG. thermoglucosidasius strains transformed with different plasmids were grown aerobically overnight in 5 ml TGP media (supplemental) with 12.5 μg/mL kanamycin at 55° C. and shaken at 200 rpm. The freshly grown overnight culture was used to inoculate 5 mL of fresh TGP media with kanamycin and incubated in the same condition for about 5 hrs when the cultures reached OD600 of about 1.0. This secondary growth culture was used to inoculate 5 ml of Defined Glucose Media (DG) with 250-fold dilution and was sub-aliquoted into a 96-well plate with 200 microliters per well where different concentrations of the effector ligand was added. The plate was incubated in a Greiner-Bio xxx plate reader and the OD600 and the fluorescence intensity (details of excitation and emission) was tracked for 24 hrs. To quantify the normalized fluorescence, the value of the raw fluorescence was taken when the cells were in mid-exponential phase (OD600 0.4-0.6) and divided by the optical density to normalize the fluorescence.", "note": "Where two headings read alike, the source gives them in different places.", "data": [{"molecule": "B1", "values": [{"measurement": "fold change (reduction) of maximal normalized fluorescence", "value": "~2.5", "unit": "fold"}, {"measurement": "maximal normalized fluorescence", "setting": "0.25 mM guanosine", "value": "15±0.1", "unit": "fluorescence units"}, {"measurement": "fluorescence in comparison to the control pG1AK parental plasmid", "setting": "with guanosine", "value": "about 30%"}, {"measurement": "maximal normalized fluorescence", "setting": "without guanosine", "value": "38±1", "unit": "fluorescence units"}]}, {"molecule": "B2", "values": [{"measurement": "fold change (reduction) of maximal normalized fluorescence", "value": "~7", "unit": "fold"}, {"measurement": "maximal normalized fluorescence", "setting": "0.25 mM guanosine", "value": "2.8±0.1", "unit": "fluorescence units"}, {"measurement": "guanosine-dependent repression of sfGFP", "setting": "guanosine added, result in words", "value": "tight repression"}, {"measurement": "maximal normalized fluorescence", "setting": "without guanosine", "value": "20±2", "unit": "fluorescence units"}]}]}
